Test results as given in patent US12578329B2, “Reagent kit containing polypeptide for use in detection of intermolecular interactions” (SHIMADZU CORPORATION, priority 2021, dated 2026).
“Also recorded” adds a separate entry of the source.

B1: NanoLuc®: known luciferase, about 19 kDa; SEQ ID NO: 73 (protein)
chain: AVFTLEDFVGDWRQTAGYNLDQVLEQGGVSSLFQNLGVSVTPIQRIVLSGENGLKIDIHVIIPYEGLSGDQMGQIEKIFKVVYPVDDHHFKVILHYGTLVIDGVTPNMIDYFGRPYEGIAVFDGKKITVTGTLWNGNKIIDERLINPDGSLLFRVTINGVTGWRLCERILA
modifications: oplophorus gracilirostris
B2: picALuc30: SEQ ID NO: 51; amino acids 54 to 175 of ALuc30 wt, without the N terminus and C terminus; 13 kDa luciferase (protein)
chain: KLPGKKLPLEVLKELEANAQKAGCTRGCLICLSHIKCTAKMKKWLPGRCESWEGDKETGQGGIGEAIVDIPEIPGFKELAPMEQFIAQVDLCADCTTGCLKGLANVKCSALLKKWLPSRCAG
modifications: picALuc30
notes: amino acids 54 to 175 of ALuc30 wt, without the N terminus and C terminus; 13 kDa luciferase
B3: TurboLuc™: known luciferase, about 16 kDa; SEQ ID NO: 74 (protein, listed as Metrisia longa)
chain: MEAEAERGKLPGKKLPLEVLIELEANARKAGCTRGCLICLSKIKCTAKMKKYIPGRCADYGGDKKTGQAGIVGAIVDIPEISGFKEMEPMEQFIAQVDRCADCTTGCLKGLANVKCSDLLKKWLPGRCATFADKIQSEVDNIKGLAGD

Legend:
[1] = Emission value of secretion-expressed luciferase in COS-7 culture medium, coelenterazine h substrate; assay type: biochemical; settings: Experiment 5
Description: (§1) • (1) COS-7 cells derived from the kidney of African green monkey were inoculated in a 24-well dish, and on the next day, subconfluency was attained. • (2) 25 μL of Opti-MEM (Thermo Fisher Scientific™), 400 ng (2 μL) of the plasmid, and 1 μL of P3000 (Invitrogen™, Waltham, MA) were mixed. • (3) 25 μL of Opti-MEM and 1 μL of lipofectoamine 3000 (Invitrogen™) were mixed. • (4) (2) and (3) were mixed together, followed by incubation at room temperature for 5 minutes. • (5) The mixture was added to the medium of (1). • (6) 500 μL of Dulbecco's modified Eagle's medium was added, followed by culturing the cells at 37° C. for 1 day and then collecting the medium. The medium contained secretion-expressed luciferase. • (7) To 100 μL of the medium, coelenterazine was added as a substrate at a final concentration of 5 μM, followed by measuring the emission value by using Enspire multi-mode plate reader (PerkinElmer™, Waltham, MA).
The emission value was measured in the same manner as in Experiment 2 except that coelenterazine h was used as a substrate in a final concentration of 5 μM. […] The emission value was measured in the same manner as in Experiment 2 except that coelenterazine h was used as a substrate in a final concentration of 25 μM.

[2] = Emission value of secretion-expressed luciferase in COS-7 culture medium, furimazine substrate; assay type: biochemical; settings: Experiment 5; furimazine in the concentration recommended by the manufacturer
Description: as §1
The emission value was measured in the same manner as in Experiment 2 except that furimazine, which was available from Promega™ as a NanoLuc® substrate, was used as a substrate in the concentration recommended by the manufacturer.

[3] = Emission value of secretion-expressed luciferase in COS-7 culture medium, coelenterazine substrate; assay type: biochemical; settings: for emission values (rank order): Experiment 5
Description: as §1
By the same manner as in Experiment 2, the emission value was measured.
The emission value was measured in the same manner as in Experiment 2 except that the final concentration of coelenterazine was changed to 0.5 μM. […] The emission value was measured in the same manner as in Experiment 2 except that the final concentration of coelenterazine was changed to 5 μM.

[4] = GLuc: when secretion expressed from cells; cited from earlier work
[5] = Measurement of specific activity (enzyme concentrations adjusted by Western blot signal); assay type: biochemical
Description: The specific activities of NanoLuc®, ALuc30 wt, and picALuc30 were measured, with their enzyme concentrations adjusted based on the Western blot signal intensity obtained in Experiment 6.

[6] = Stability of protein terminus: Western blot detection of Flag-tag and His-tag in culture supernatant; settings: secretion-expressed luciferase in COS-7 culture supernatant; Western blotting
Description: In the same manner as in Experiment 2, the plasmid was transfected into COS-7 cells and culture supernatant was collected. Flag-tag added to the N terminus of each secretion-expressed luciferase and His-tag added to the C terminus thereof were detected by Western blotting (SDS-PAGE, Mini-PROTEAN TGX Gel StainFree 4-15% (Bio-Rad™, Hercules, CA)) (FIG. 17). The antibodies used were Anti 6×Histidine, Monoclonal Antibody (9C11), Peroxidase Conjugated (manufactured by FUJIFILM Wako Pure Chemical Corporation, 1:1000) and Monoclonal ANTI-FLAG (R) M2-Peroxidase (HRP) antibody produced in mouse, clone M2 (manufactured by Sigma-Aldrich™, St. Louis, MO, 1/1000), respectively, and detection was performed with Amesham Imager 680 (Cytiva™, Marlborough, MA).

[7] = Thermal stability of secretion-expressed picALuc30 (heat treatment, then emission value); assay type: physicochemical
Description: In the same manner as in Experiment 2, the plasmid was transfected into COS-7 cells and the medium was collected. The culture supernatant containing picALuc30 was incubated for 10 minutes at room temperature (25° C.), 40° C., 50° C., 60° C., 70° C., 80° C., or 90° C., and then the emission value was measured. […] (FIG. 22), indicating a sufficient level of practical utility.

[8] = Thermal stability of picALuc30 purified from Escherichia coli; assay type: physicochemical; settings: expressed in Escherichia coli
[9] = Specific activity of picALuc30 expressed in Escherichia coli versus secretion-expressed by COS-7 cells; assay type: biochemical; settings: concentrations adjusted by Western blotting
Description: • (1) A DNA sequence coding for picALuc30 was inserted into a pET32 vector to prepare a plasmid. Transformation was carried out into Escherichia coli SHuffle T7 express lysY (New England Biolab). • (2) Escherichia coli from (1) was inoculated into an LB plate (containing […] of ampicillin). • (3) Next day, one colony was taken out, and cultured with shaking overnight at 30° C. in a test tube containing 2 mL of LB medium (containing […] of ampicillin). • (4) 1 mL of (3) was added to 100 mL of LB medium (containing […] of ampicillin), followed by shaking culture at 30° C. in a 500-mL flask until the absorbance OD600 reached about 0.4. • (5) When the absorbance OD600 reached about 0.4, 40 μL of 1-M isopropyl-β-thiogalactopyranoside was added, followed by overnight culture at 16° C. • (6) The bacterial cells were collected, followed by purification of the protein using HisTALON Buffer Set and TALON Metal Affinity Resin (both from Takara Bio Inc.). From 100 mL of the medium, 1.7 mg of picALuc30 was obtained.

| Molecule | emission values (rank order) ([1]; coelenterazine h 5 μM) | emission values (rank order) ([1]; coelenterazine h 25 μM) | emission value [2] | emission values (rank order) ([3]; coelenterazine 0.5 μM) | emission values (rank order) ([3]; coelenterazine 5 μM) | emission value (known) [4] | maximum emission value ([5]; Experiment 7) | specific activity ([5]; coelenterazine or coelenterazine h as substrate) | stability of protein termini (Flag-tag and His-tag detection) [6] | activity remained ([7]; 10-minute incubation at 50° C.) | activity remained ([7]; 10-minute incubation at 60° C.) | activity remained ([7]; 10-minute incubation at 70° C.) | activity after heat treatment ([8]; 10-minute incubation at 60° C.) | activity remained ([8]; 10-minute incubation at 70° C.) | activity remained ([8]; 10-minute incubation at 80° C.) | emission value ([3]; Experiment 2, coelenterazine 5 μM, medium of transfected COS-7 cells) | emission value compared with NanoLuc and TurboLuc ([3]; secretion-expressed, substrate coelenterazine or coelenterazine h in a high concentration (summary of Experiment 5)) | specific activity, secretion expressed by COS-7 cells versus prepared in Escherichia coli [9] |
| --- | --- | --- | --- | --- | --- | --- | --- | --- | --- | --- | --- | --- | --- | --- | --- | --- | --- | --- |
| B1 | TurboLuc™=ALuc30 wt>>NanoLuc®>picALuc30>GLuc | picALuc30>>NanoLuc®=TurboLuc™=ALuc30 wt>>GLuc | high emission values; also recorded: the same as when coelenterazine or coelenterazine h was used | NanoLuc®>>picALuc30>TurboLuc™>ALuc30 wt>GLuc | ALuc30 wt=picALuc30>NanoLuc®>TurboLuc™>GLuc | very high |  |  |  |  |  |  |  |  |  |  |  |  |
| B2 | TurboLuc™=ALuc30 wt>>NanoLuc®>picALuc30>GLuc | picALuc30>>NanoLuc®=TurboLuc™=ALuc30 wt>>GLuc | low as compared to NanoLuc® and TurboLuc™ | NanoLuc®>>picALuc30>TurboLuc™>ALuc30 wt>GLuc | ALuc30 wt=picALuc30>NanoLuc®>TurboLuc™>GLuc |  | same maximum emission value as NanoLuc® | the same | both termini remaining | ≥ 80% | ≥ 80% | ≥ 50% | lost little activity | ≥ 90% | ≥ 80% | the same as or higher than that of ALuc30 wt | equal to or higher than NanoLuc® and TurboLuc™ | approximately the same |
| B3 | TurboLuc™=ALuc30 wt>>NanoLuc®>picALuc30>GLuc | picALuc30>>NanoLuc®=TurboLuc™=ALuc30 wt>>GLuc | high emission values | NanoLuc®>>picALuc30>TurboLuc™>ALuc30 wt>GLuc | ALuc30 wt=picALuc30>NanoLuc®>TurboLuc™>GLuc | relatively high |  |  | N terminus was lost |  |  |  |  |  |  |  |  |  |
